Publication PMC2924745 (Nature structural & molecular biology, 2010)

T1: BtuCD, the E. coli vitamin B12 ABC transporter (His-tagged) (Escherichia coli, UniProt P06609;P06611)
T1 sequence 1: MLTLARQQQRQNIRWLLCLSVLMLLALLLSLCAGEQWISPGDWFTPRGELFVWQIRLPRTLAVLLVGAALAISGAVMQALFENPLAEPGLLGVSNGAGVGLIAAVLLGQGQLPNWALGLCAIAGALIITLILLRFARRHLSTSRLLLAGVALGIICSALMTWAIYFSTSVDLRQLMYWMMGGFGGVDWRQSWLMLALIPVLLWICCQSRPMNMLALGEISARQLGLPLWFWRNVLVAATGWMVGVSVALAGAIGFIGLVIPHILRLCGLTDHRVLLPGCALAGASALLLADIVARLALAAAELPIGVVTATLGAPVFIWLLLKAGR
T1 sequence 2: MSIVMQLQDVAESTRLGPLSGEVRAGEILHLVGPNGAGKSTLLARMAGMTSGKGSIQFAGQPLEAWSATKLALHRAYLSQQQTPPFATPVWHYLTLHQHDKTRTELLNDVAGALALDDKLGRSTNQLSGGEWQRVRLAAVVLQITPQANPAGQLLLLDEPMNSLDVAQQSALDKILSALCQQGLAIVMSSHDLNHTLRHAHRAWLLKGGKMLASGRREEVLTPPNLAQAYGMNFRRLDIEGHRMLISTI


Columns and labels:
[1] = biological target: MetIN, the E. coli D/L-methionine ABC importer (His-tagged) (Escherichia coli) (UniProt P30750); assay: SPR
MetIN, the E. coli D/L-methionine ABC importer (His-tagged) (Escherichia coli), sequence (P30750 whole entry, chain 1 of 2): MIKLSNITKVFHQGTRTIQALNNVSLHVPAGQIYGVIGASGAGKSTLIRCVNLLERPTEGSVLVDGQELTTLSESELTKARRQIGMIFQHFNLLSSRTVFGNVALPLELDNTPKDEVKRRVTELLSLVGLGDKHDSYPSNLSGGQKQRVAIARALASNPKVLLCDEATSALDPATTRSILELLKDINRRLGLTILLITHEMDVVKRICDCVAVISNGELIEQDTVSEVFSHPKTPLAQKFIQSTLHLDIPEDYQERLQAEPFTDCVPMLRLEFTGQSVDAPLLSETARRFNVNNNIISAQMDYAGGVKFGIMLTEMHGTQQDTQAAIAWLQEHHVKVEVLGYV
MetIN, the E. coli D/L-methionine ABC importer (His-tagged) (Escherichia coli), sequence (P31547 whole entry, chain 2 of 2, further chain): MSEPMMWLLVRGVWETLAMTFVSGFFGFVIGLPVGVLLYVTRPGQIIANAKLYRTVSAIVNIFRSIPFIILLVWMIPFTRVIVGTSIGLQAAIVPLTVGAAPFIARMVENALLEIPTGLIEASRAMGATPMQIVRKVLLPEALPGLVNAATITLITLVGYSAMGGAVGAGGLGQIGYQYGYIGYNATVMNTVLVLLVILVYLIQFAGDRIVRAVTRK

[2] = biological target: T1, BtuCD, the E. coli vitamin B12 ABC …; assay: co-sedimentation
[3] = biological target: T1, BtuCD, the E. coli vitamin B12 ABC …; assay: cell-based or functional assay

Molecule	Kd [1] [µM]	Kd [2] [µM]	stimulation of ATP hydrolysis rate of BtuCD [3] [fold]
MetQ, the binding protein of the E. coli D/L-methionine importer (from UniProt P28635 23-271) (natural protein)	74		
BtuF, the vitamin B12 binding protein of E. coli, with a C-terminal FLAG tag (natural protein) APRVITLSPANTELAFAAGITPVGVSSYSDYPPQAQKIEQVSTWQGMNLERIVALKPDLVIAWRGGNAERQVDQLASLGIKVMWVDATSIEQIANALRQLAPWSPQPDKAEQAAQSLLDQYAQLKAQYADKPKKRVFLQFGINPPFTSGKESIQNQVLEVCGGENIFKDSRVPWPQVSREQVLARSPQAIVITGGPDQIPKIKQYWGEQLKIPVIPLTSDWFERASPRIILAAQQLCNALSQVD		< 0.02	< 2
